Laboratory results taken from US20250051821.

B1: IFF21369 (protein)
chain: QLPKPIMSPAVPFDHTDPILYQHLGSTPSTYDQWGWGWLPLRCKAVAEARGLNPYDVNVYNVHYEDCDQAWVMCRHHGAQVSLDQMIDNFGRLPVRLRNIVRHQFAVPGEGLGAYTYSDLGDIVFTGDIGHLLRFWVHEAGHAVDRNINPSQGDYSSSQAWINEYNKDGYICDEYAKNNMAENFAQEVIVALFDKVVPGGIGTIVPNWNDIFHQYATVQAVMGDMLIPGGFCNRHFADDTIVCMGPAAGCENSKRDYEGLNSTETYTAEAEEPTVCTLA
B2: IFF21353 (protein)
chain: NLDKPVIQPNFPSLAPGLMSHLAPTHSTWDDWGAGWIPQDCKSMVQGAGFSPNDIIPFNIHYDDCGQTWTFCRHKNSPLSELQILDMFGRLPVRMRSFVRHLVFVPGNRSAGSNGDNILVVGDGDITLFAHEIGHSLDSHAFDPSYGVPFSTGNVWVSNYNLDSAVSDSYAQTSQQENFAQETVISLFDKVVPGGIGTIQPNWQAIFHQYATLQGYIGNVIIPGGTCTHRLTDSPPVPMSGSAKSRRGLGPKPEVSLSPEVKEIEAIPMESSITMTSFDEHGKPNGTYVIHLK
B3: IFF21357 (protein)
chain: GNPDKPEVNPHIPYDRLESDLRNNLHPTQSTWDYWGAGWIPQGCKDLANTYHLNPADFTVFNVHYTDCSASWTFCRHKDAGASEIDMIDMLGRLPVRMRSYTRHLMATPGLNDGAAAWTWSTGDTVVESAPNLATLVHEVSHSLDWHALPQYQQPFSSSSIWQDNYNQDSATPTGYGRTNWMENFAETGMVGVYDKVVPGGIGNIESNWNSIFHQYATYQGYLGDKIIPGGSCANRFDDTAPVTMSNSAKFRVTSPKPETGIDFAGKNITQIIPSKEVEGLFIKG
B4: IFF21377 (protein)
chain: KRLDKPALTPDLGYLLQGSVDNLHPTHSTWDKWGDGWIPEDCKSMAQNPNLNLNLNPSDFEVYNVHYDDCGDAWVLCRHKDSPVDLVTTVDIFGRLPVRMRDWVRHVMTVPGNDYAFNLNGNIVFSGRTSTNMDVAIHETGHSLDLLKAYGEVLSSSQTWIDNYNQDSNVPDNYAQSSQIENVAQNTVVSVFDKIVPGGFGSVQPNWHNIFHQYATLKSKAGDLILPGGQCDRRLKDSSPIPMDSNANEQGLLSWKPRTSFVNTYNNIVTNFEPFNTAEHCKESFS
B5: IFF21368 (protein)
chain: QLSKPVMNPPVPFSDLDPTLFKYLKSTPHNRDQWGWGWLPARCKAIADQQGLNAYDIDVYNVHYSDCNQAWVMCRHHLSPLSIDTMAENFGRIPVRMRNFVRVQFALPQKDSSFGGATFSDLGDILWYGDVSKTLRFWIHEAGHTIDRNINPGSNDDYSKSSAWLNEYNKDGFICDDYAKNNAAENFAQEVIVALFDKVVPGGLGSVSPNWNSIFHQYATVQSKLGDILIPGGTCNRKFADDTIVCMGPAANCNSKANAKFRLKADKTQDAAIVAASDNPPIEDLFEVEE
B6: IFF21380 (protein)
chain: QQLDKPALTNDLDYLLEGNVNNLPSNGGPYWGKWEAGLMPADCKSIAESQDLDPTDFEVWDIFFDDCQDGWSFCRHVDSADSFETLVDTFGRIPVRMRSWIRHILTIPGDNWAFNSNGNIAFSGTTSANLDVALHETGHSLDLLGAYGSEALSSTQEWLDAYDADSNVPDNYARSNQVENVAQNTVVGIYDKVVPGGFPGVQPNYQNIENQYTLLQDKAGDQIIPGGTCDRHLENSETVSASGSSKKARDSVNKKSRAVAHDPAFKGTYTNIVKDFVPFNTQDYHH
B7: IFF21367 (protein)
chain: QNLNKPVLFTDGLSPHVDSVFFQHLTPTQSTWDQWGWGWIPQACLSVVQGTQFSPYDIEVYNVHYTDCASAVVMCRHNQAQMSIINMIDAFGRVPIHDRQWTQHILALPASSCSAGTGGAVTTFYGPCYIPSVFVHELTHTLDAYVNDQTGSTGSVHVYSTTSSYLNSVNQDSCVPDGYANTSPQEDYAQTSVLALYEKVNPGGLDPIGNWRCLVNAKNNLDSIIGQELTPGGSCTHRWADSAIVCMGPAAGCASSKRGFSTRRGARVAGPKPEPANKKGDPLVSNLTPDLTSAVNAKIDDFSHLVSNHTASIEATIRINAWNKAAGKKTVPVPTA
B8: IFF21364 (protein)
chain: QLDKPALTDNLDYLLDGNVANLPSNGGPYWGKWEDGLIPADCKSIAESQGLNPTDFEVYDIFFDDCQDGWSFCRHKDSSDSFETLVDTFGRVPVRMRSWVRHILTIPGNNWAFNSNGNIAFSGTTSSNLDVALHETGHSLDLLGAYGDGALSSSQEWEDAYNADSNVPDNYAQSNQVENVAQNTVVGIYDKVVPGGFPGVQPNYANIQNQYTLLQDKAGEQIIPGGTCDRHLENSDTVSMSGSSSKRDVRAAKARAASHDSALKGKYSNIVKDFKPFNSQDFHH
B9: IFF21331 (protein)
chain: ALDKPIIDPEFPGGGLASLGQGLLDNLAPTQSTYADWEAGFIPQDCKTIAEGNSLSPLDIIPFNITYTDCSDPWIFCRHKDSPLSEVDMIDLFGRMPVGMRSFIRHIISIPGDKSAGSNGDNVQMNGDVDITVFIHETGHSLDSHGFDASYGVPFSTGQVWTDNYNLDSAVTDSYAQSSQQENFAQETVVALYDKVVPGGVGTIQPNWQAIQHQYETIQGYAGGIIIPGGTCTNRLPNSPAVPMSDSAKYRVNMAHKPDVSLSNYVTEIKSIPMEPIMKLTHYDAAGRPIGKSTIDLST
B10: IFF21362 (protein)
chain: GSPDKPEMNPAFDYGRFEAGLRDNLHPTHSTWDYWGPGWIPQSCKDIATSHGLSPNDFTIFNVHYDDCQEGWTFCRHKDAGASEIDMIDIFGRAPVHMRSFIRHLVATPGLHDGAAAFTFSNGDCVVESAPDLSVMLHEMSHSLDWHALPQYPSPFSSSNEWQSNYAQDSNTPTAYGRTNWLEDFAEAGKVGVFDKVVPGGFGSVAGNWGQVFHQYATYQGYLGDTILPGGTCDKRFPNSETVPMAGNSKRMAADLGEKPDNTIKADNMTLIQMRPEIEGQVSICEHQH
B11: IFF21371 (protein)
chain: QLDKPLVVPAMPALDAGLLKHLAAPAYTTSQWEWGWIPQWCKDEAVSEKLSPYDIEVFNIHYNDCKDVWIFCRHNAAQASQKDMIDIFGRMPVRTRQFVRHILAVPGTISAGSSGDNIALRGTGPNLISVLIHEAAHSMDSHAVDSLSKPFHNTAEWLAAYKADSAISDDYAQTSQSENFAQTVVIAVFDKVVPGGIGSVQPSWAAIKNQYTTAQKWLGDLIIPGGTCTARLENSPVASMGRASGNGARMRRRARGGKPDVSLSKDTKVIPAIAGKKIHITSFAQ
B12: IFF21378 (protein)
chain: LDKPALTPDLDYLLDGNTANLPQNGGAHWGKWEDGLMPEDCKSIAEGQDLNPADFEVYDVFYDDCQDAWSFCRHKDSPEDLETLVNTFGRVPVRMRSWVRHVLSIPGNNWAFNSNGNIALSGTTTHNLDVCLHETGHSLDLLGAYVDGALSSTQEWEDAYNKDSAVPDNYARTNQVENVAQNTVVGIYDKVVPGGFPGVQSESQKIENQYKLLQDKAGEQILPGGTCDRHLQNSATVSIKSSSKRENKVVKAREAHDSALKGTYTNIVKEFTPFNTKDFHEEH
B13: IFF21363 (protein)
chain: QLDKPVIDPEFPSGALDQGLNDHLRAPGSSWDAWEEGWIPEDCKNMIEGTEFSVQDITPFNIHYDDCEDPWVFCRHKDSPLSEDYIVDAFGKMPVRFRSFVRHMLFVPGTESAGSSGDNVQMNGDLPITVFIHETAHSFDGHHGLPDIEGGFSASQAWLDAYNADSAVTDDYGQTSQAENFAQQTVVALFDSNVPDGVASIQPSWQSIENQFRLIQDRAADILRPDGTCTSRLENSAPVEKGGSARLRPSASTKPDVSLKGKIKVIEPVPMGAEMEMAQYDASGKVVGTKVVKVGGRE

Target: T1, IFF05588
T1 chain: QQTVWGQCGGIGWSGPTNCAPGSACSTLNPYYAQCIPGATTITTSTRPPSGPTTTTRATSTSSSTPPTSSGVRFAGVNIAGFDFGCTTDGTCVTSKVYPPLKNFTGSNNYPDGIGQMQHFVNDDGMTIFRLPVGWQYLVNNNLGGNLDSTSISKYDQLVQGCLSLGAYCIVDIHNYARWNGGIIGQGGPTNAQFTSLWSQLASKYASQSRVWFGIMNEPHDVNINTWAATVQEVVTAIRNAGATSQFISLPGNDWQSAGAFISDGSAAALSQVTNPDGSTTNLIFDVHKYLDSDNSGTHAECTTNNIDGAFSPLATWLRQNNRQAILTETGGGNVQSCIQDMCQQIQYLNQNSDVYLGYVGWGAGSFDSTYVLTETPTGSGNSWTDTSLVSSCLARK
In the case of B1, the Relative late peak area (centered, scaled, averaged over 5, 10 and 15 min) is reported as -1 and the Relative late peak area (centered, scaled, averaged over doses, 24 h; sample diluted 1-fold) is reported as -1.42.
For B2, the Relative late peak area (centered, scaled, averaged over 5, 10 and 15 min) was -1.06, the Relative late peak area (centered, scaled, averaged over doses, 24 h; sample diluted 1-fold) was -1.31 and the Relative late peak area (reverse phase chromatography, 24 h) was 0.25. For the same protein, the “modification of IFF05588 (reverse phase chromatography, 5 to 15 min)” value was “All samples containing proteins related to IFF05497 except seven (IFF21355, IFF21358, IFF21356, IFF21361, IFF21370, IFF21357 and IFF21353) are able to modify IFF05588 under these reaction conditions”.
With B3 the Relative late peak area (centered, scaled, averaged over 5, 10 and 15 min) was -1.05, the Relative late peak area (centered, scaled, averaged over doses, 24 h; sample diluted 1-fold) was -1.49 and the “modification of IFF05588 (reverse phase chromatography, 5 to 15 min)” value was “All samples containing proteins related to IFF05497 except seven (IFF21355, IFF21358, IFF21356, IFF21361, IFF21370, IFF21357 and IFF21353) are able to modify IFF05588 under these reaction conditions”.
In the case of B4, the Relative late peak area (centered, scaled, averaged over 5, 10 and 15 min) is reported as -0.99 and the Relative late peak area (centered, scaled, averaged over doses, 24 h; sample diluted 1-fold) is reported as -1.45.
For B5, the Relative late peak area (centered, scaled, averaged over 5, 10 and 15 min) was -1 and the Relative late peak area (centered, scaled, averaged over doses, 24 h; sample diluted 1-fold) was -1.44.
In the case of B6, the Relative late peak area (centered, scaled, averaged over 5, 10 and 15 min) is reported as -0.71, the Relative late peak area (centered, scaled, averaged over doses, 24 h; sample diluted 1-fold) is reported as -0.02 and the Relative late peak area (reverse phase chromatography, 24 h) is reported as 0.61.
With B7 the Relative late peak area (centered, scaled, averaged over 5, 10 and 15 min) was -0.67 and the Relative late peak area (centered, scaled, averaged over doses, 24 h; sample diluted 1-fold) was 0.19.
B8 was tested, and the Relative late peak area (centered, scaled, averaged over 5, 10 and 15 min) was -0.57, the Relative late peak area (centered, scaled, averaged over doses, 24 h; sample diluted 2-fold) was -0.28 and the Relative late peak area (reverse phase chromatography, 24 h) was 0.49.
B9 gave a Relative late peak area (centered, scaled, averaged over 5, 10 and 15 min) of -0.86 and a Relative late peak area (centered, scaled, averaged over doses, 24 h; sample diluted 1-fold) of -0.21.
B10 was tested, and the Relative late peak area (centered, scaled, averaged over 5, 10 and 15 min) was -0.99, the Relative late peak area (centered, scaled, averaged over doses, 24 h; sample diluted 1-fold) was -1.52 and the Relative late peak area (reverse phase chromatography, 24 h) was 0.23. For the same protein, the “modification of IFF05588 (reverse phase chromatography, 24 h)” value was “All samples containing proteins related to IFF05497 except one (IFF21362) are able to modify IFF05588 under these reaction conditions”.
Protein B11 has a Relative late peak area (centered, scaled, averaged over 5, 10 and 15 min) of -0.95 and a Relative late peak area (centered, scaled, averaged over doses, 24 h; sample diluted 1-fold) of -1.12.
Work on B12 yielded a Relative late peak area (centered, scaled, averaged over 5, 10 and 15 min) of -0.6, a Relative late peak area (centered, scaled, averaged over doses, 24 h; sample diluted 1-fold) of 0.1 and a Relative late peak area (reverse phase chromatography, 24 h) of 0.52.
B13 was tested, and the Relative late peak area (centered, scaled, averaged over 5, 10 and 15 min) was -0.43, the Relative late peak area (centered, scaled, averaged over doses, 24 h; sample diluted 2-fold) was -0.13 and the Relative late peak area (reverse phase chromatography, 24 h) was 0.3.
